Experiment in all cases: purified protein
Common to all, as to format: biochemical, Pseudobacillus badius

Substrate in data set [1]: NC(=O)C1=CN([C@@H]2O[C@H](COP(=O)(O)OP(=O)(O)OC[C@H]3O[C@@H](n4cnc5c(N)ncnc54)[C@H](O)[C@@H]3O)[C@@H](O)[C@H]2O)C=CC1
Particulars: reductive amination, 2 M NH4Cl/NH4OH pH 9.5, 20 mM 2-OPBA, 30 °C, varied: cofactor.

Substrate in data set [2]: O=C(O)C(=O)Cc1ccccc1
Particulars: reductive amination, 2 M NH4Cl/NH4OH pH 9.5, 0.5 mM NADH, 30 °C.

Substrate in data set [3]: O=C(O)C(=O)CCc1ccccc1
To be noted: reductive amination, 2 M NH4Cl/NH4OH pH 9.5, 0.5 mM NADH, 30 °C.

B1: BbPheDH (Pseudobacillus badius) (protein)
chain: SLVEKTSIIKDFTLFEKMSEHEQVVFCNDPATGLRAIIAIHDTTLGPALGGCRMQPYNSVEEALEDALRLSKGMTYKCAASDVDFGGGKAVIIGDPQKDKSPELFRAFGQFVDSLGGRFYTGTDMGTNMEDFIHAMKETNCIVGVPEAYGGGGDSSIPTAMGVLYGIKATNKMLFGKDDLGGVTYAIQGLGKVGYKVAEGLLEEGAHLFVTDINEQTLEAIQEKAKTTSGSVTVVASDEIYSQEADVFVPCAFGGVVNDETMKQFKVKAIAGSANNQLLTEDHGRHLADKGILYAPDYIVNSGGLIQVADELYEVNKERVLAKTKHIYDAILEVYQQAELDQITTMEAANRMCEQRMAARGRRNSFFTSSVKPKWDIRN
notes: His-tagged, full length, pET-28a (+), expressed in E. coli BL21 (DE3), Ni-NTA purified
Take B1: the results for the Km in “purified protein [1]”, in “purified protein [2]” and in “purified protein [3]” were 65 ± 3 µM, 300 ± 40 µM and 600 ± 60 µM, respectively. Besides, the kcat (in general, the number of substrate molecules converted per active site and unit of time at saturation) is 8 ± 1 s⁻¹ in “purified protein [1]”, 115 ± 6 s⁻¹ in “purified protein [2]” and 11 ± 1 s⁻¹ in “purified protein [3]”. Also, the kcat/Km (usually the turnover number divided by the Michaelis constant) in the data set “purified protein [1]” stood at 115000 ± 14000 M⁻¹ s⁻¹; in the data set “purified protein [2]” it was 370000 ± 45000 M⁻¹ s⁻¹; in “purified protein [3]”, 17000 ± 1000 M⁻¹ s⁻¹.

For the origin of these results see article PMC8543943, “Structure-guided steric hindrance engineering of Bacillus badius phenylalanine dehydrogenase for efficient L-homophenylalanine synthesis” (Biotechnology for Biofuels, 2021).
